# Results as given in paper PMC10786891, “Massively parallel profiling of RNA-targeting CRISPR-Cas13d”.
# T1: EsCas13d, nuclease-dead (Eubacterium siraeum, UniProt B0MS50, R295A;H300A;R849A;H854A)
# T1 sequence: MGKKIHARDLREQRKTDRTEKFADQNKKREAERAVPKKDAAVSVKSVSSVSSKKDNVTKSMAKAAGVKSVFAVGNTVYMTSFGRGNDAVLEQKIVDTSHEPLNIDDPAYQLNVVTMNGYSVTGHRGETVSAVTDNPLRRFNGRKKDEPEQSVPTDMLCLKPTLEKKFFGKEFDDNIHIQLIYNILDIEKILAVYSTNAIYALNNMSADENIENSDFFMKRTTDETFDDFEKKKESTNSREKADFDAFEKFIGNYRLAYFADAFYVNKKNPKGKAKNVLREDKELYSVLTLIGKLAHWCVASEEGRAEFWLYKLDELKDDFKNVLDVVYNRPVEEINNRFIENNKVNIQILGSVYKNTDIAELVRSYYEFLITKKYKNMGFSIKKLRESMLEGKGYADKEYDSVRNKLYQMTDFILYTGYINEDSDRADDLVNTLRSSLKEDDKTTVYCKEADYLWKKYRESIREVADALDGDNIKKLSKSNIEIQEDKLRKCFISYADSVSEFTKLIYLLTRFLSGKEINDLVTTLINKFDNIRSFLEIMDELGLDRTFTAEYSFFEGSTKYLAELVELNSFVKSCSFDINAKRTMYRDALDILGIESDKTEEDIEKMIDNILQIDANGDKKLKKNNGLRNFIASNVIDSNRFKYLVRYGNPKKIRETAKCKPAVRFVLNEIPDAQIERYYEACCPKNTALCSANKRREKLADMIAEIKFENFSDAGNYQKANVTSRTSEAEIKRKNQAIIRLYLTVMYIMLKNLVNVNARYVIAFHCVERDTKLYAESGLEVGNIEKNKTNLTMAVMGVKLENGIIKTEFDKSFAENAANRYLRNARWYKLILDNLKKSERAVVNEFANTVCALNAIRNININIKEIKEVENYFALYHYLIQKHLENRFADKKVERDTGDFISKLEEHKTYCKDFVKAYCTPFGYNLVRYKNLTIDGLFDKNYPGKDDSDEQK
# Target: T1, EsCas13d, nuclease-dead
# Test: crRNA (strand 1, pre-loaded); Mg2+; 40 mM Tris-HCl pH 7.5, 150 mM NaCl, 6 mM MgCl2, 1 mM DTT, 0.1% Tween-20, 0.2 mg/ml BSA; 25 C; 10 min per concentration, then washed
# Conditions: tags: His6-TwinStrep-SUMO cleaved; N-terminal SNAP kept (SNAP-Surface 488); label: 3' end held by stalled T7 RNA polymerase
row,Binder,Kd [nM]
1,"target 1 insA 3' of 10,insG 3' of 8 (mixed) RNA 1: CACCCGUGCAAAAAUGCAGGGGUCUAAAACUGAGCGGAUAACCUCUCUAUGG RNA 2: GGGAAUGGAUCCACAUCUACGAAUUCGUACCAUAGAGAGGUUAAUGCCGCUCACCGAGAUCGGAAGAGCACACGU",10.1 ± 0.5
2,"target 1 G5U,U10A (mixed) RNA 1: CACCCGUGCAAAAAUGCAGGGGUCUAAAACUGAGCGGAUAACCUCUCUAUGG RNA 2: GGGAAUGGAUCCACAUCUACGAAUUCGUACCAUAGAGAGGUAAUCCUCUCACCGAGAUCGGAAGAGCACACGU",95 ± 22
3,"target 1 G17C,C22A (mixed) RNA 1: CACCCGUGCAAAAAUGCAGGGGUCUAAAACUGAGCGGAUAACCUCUCUAUGG RNA 2: GGGAAUGGAUCCACAUCUACGAAUUCGUAACAUACAGAGGUUAUCCGCUCACCGAGAUCGGAAGAGCACACGU",~60
4,"target 1 insC 3' of 10,insA 3' of 10 (mixed) RNA 1: CACCCGUGCAAAAAUGCAGGGGUCUAAAACUGAGCGGAUAACCUCUCUAUGG RNA 2: GGGAAUGGAUCCACAUCUACGAAUUCGUACCAUAGAGAGGUUCAAUCCGCUCACCGAGAUCGGAAGAGCACACGU",13.5 ± 1
5,"target 1 C2U,G12U (mixed) RNA 1: CACCCGUGCAAAAAUGCAGGGGUCUAAAACUGAGCGGAUAACCUCUCUAUGG RNA 2: GGGAAUGGAUCCACAUCUACGAAUUCGUACCAUAGAGAGUUUAUCCGCUUACCGAGAUCGGAAGAGCACACGU",10.5 ± 0.5
6,"target 1 U3C,C7U (mixed) RNA 1: CACCCGUGCAAAAAUGCAGGGGUCUAAAACUGAGCGGAUAACCUCUCUAUGG RNA 2: GGGAAUGGAUCCACAUCUACGAAUUCGUACCAUAGAGAGGUUAUUCGCCCACCGAGAUCGGAAGAGCACACGU",19.6 ± 2.2
7,"target 1 C4A,A18G (mixed) RNA 1: CACCCGUGCAAAAAUGCAGGGGUCUAAAACUGAGCGGAUAACCUCUCUAUGG RNA 2: GGGAAUGGAUCCACAUCUACGAAUUCGUACCAUGGAGAGGUUAUCCGAUCACCGAGAUCGGAAGAGCACACGU",68 ± 16
8,"target 1 G5A,G13A (mixed) RNA 1: CACCCGUGCAAAAAUGCAGGGGUCUAAAACUGAGCGGAUAACCUCUCUAUGG RNA 2: GGGAAUGGAUCCACAUCUACGAAUUCGUACCAUAGAGAAGUUAUCCACUCACCGAGAUCGGAAGAGCACACGU",34 ± 7
9,"target 1 C4A,G12C (mixed) RNA 1: CACCCGUGCAAAAAUGCAGGGGUCUAAAACUGAGCGGAUAACCUCUCUAUGG RNA 2: GGGAAUGGAUCCACAUCUACGAAUUCGUACCAUAGAGAGCUUAUCCGAUCACCGAGAUCGGAAGAGCACACGU",31 ± 8
10,"target 1 G13A,G17A (mixed) RNA 1: CACCCGUGCAAAAAUGCAGGGGUCUAAAACUGAGCGGAUAACCUCUCUAUGG RNA 2: GGGAAUGGAUCCACAUCUACGAAUUCGUACCAUAAAGAAGUUAUCCGCUCACCGAGAUCGGAAGAGCACACGU",66 ± 19
11,"target 1 C6U,G17A (mixed) RNA 1: CACCCGUGCAAAAAUGCAGGGGUCUAAAACUGAGCGGAUAACCUCUCUAUGG RNA 2: GGGAAUGGAUCCACAUCUACGAAUUCGUACCAUAAAGAGGUUAUCUGCUCACCGAGAUCGGAAGAGCACACGU",42 ± 4
12,target 1 insA 3' of 4 (mixed) RNA 1: CACCCGUGCAAAAAUGCAGGGGUCUAAAACUGAGCGGAUAACCUCUCUAUGG RNA 2: GGGAAUGGAUCCACAUCUACGAAUUCGUACCAUAGAGAGGUUAUCCGCAUCACCGAGAUCGGAAGAGCACACGU,8.5 ± 1.1
13,"target 1 insA 3' of 21,insU 3' of 14 (mixed) RNA 1: CACCCGUGCAAAAAUGCAGGGGUCUAAAACUGAGCGGAUAACCUCUCUAUGG RNA 2: GGGAAUGGAUCCACAUCUACGAAUUCGUACCAAUAGAGAUGGUUAUCCGCUCACCGAGAUCGGAAGAGCACACGU",49 ± 11
14,"target 1 insA 3' of 13,insA 3' of 7 (mixed) RNA 1: CACCCGUGCAAAAAUGCAGGGGUCUAAAACUGAGCGGAUAACCUCUCUAUGG RNA 2: GGGAAUGGAUCCACAUCUACGAAUUCGUACCAUAGAGAGAGUUAUCACGCUCACCGAGAUCGGAAGAGCACACGU",4.06 ± 0.21
15,"target 1 C6A,C22A (mixed) RNA 1: CACCCGUGCAAAAAUGCAGGGGUCUAAAACUGAGCGGAUAACCUCUCUAUGG RNA 2: GGGAAUGGAUCCACAUCUACGAAUUCGUAACAUAGAGAGGUUAUCAGCUCACCGAGAUCGGAAGAGCACACGU",10.5 ± 0.6
16,"target 1 insC 3' of 17,insA 3' of 7 (mixed) RNA 1: CACCCGUGCAAAAAUGCAGGGGUCUAAAACUGAGCGGAUAACCUCUCUAUGG RNA 2: GGGAAUGGAUCCACAUCUACGAAUUCGUACCAUAGCAGAGGUUAUCACGCUCACCGAGAUCGGAAGAGCACACGU",38 ± 4
17,"target 1 C7G,U10A (mixed) RNA 1: CACCCGUGCAAAAAUGCAGGGGUCUAAAACUGAGCGGAUAACCUCUCUAUGG RNA 2: GGGAAUGGAUCCACAUCUACGAAUUCGUACCAUAGAGAGGUAAUGCGCUCACCGAGAUCGGAAGAGCACACGU",11.7 ± 0.5
18,"target 1 G5A,C6U (mixed) RNA 1: CACCCGUGCAAAAAUGCAGGGGUCUAAAACUGAGCGGAUAACCUCUCUAUGG RNA 2: GGGAAUGGAUCCACAUCUACGAAUUCGUACCAUAGAGAGGUUAUCUACUCACCGAGAUCGGAAGAGCACACGU",13.1 ± 0.8
19,"target 1 insU 3' of 21,insC 3' of 13 (mixed) RNA 1: CACCCGUGCAAAAAUGCAGGGGUCUAAAACUGAGCGGAUAACCUCUCUAUGG RNA 2: GGGAAUGGAUCCACAUCUACGAAUUCGUACCUAUAGAGAGCGUUAUCCGCUCACCGAGAUCGGAAGAGCACACGU",32 ± 4
20,"target 1 A18U,C21A (mixed) RNA 1: CACCCGUGCAAAAAUGCAGGGGUCUAAAACUGAGCGGAUAACCUCUCUAUGG RNA 2: GGGAAUGGAUCCACAUCUACGAAUUCGUACAAUUGAGAGGUUAUCCGCUCACCGAGAUCGGAAGAGCACACGU",56 ± 6
21,target 1 del19 (mixed) RNA 1: CACCCGUGCAAAAAUGCAGGGGUCUAAAACUGAGCGGAUAACCUCUCUAUGG RNA 2: GGGAAUGGAUCCACAUCUACGAAUUCGUACCAAGAGAGGUUAUCCGCUCACCGAGAUCGGAAGAGCACACGU,26.4 ± 2.2
22,"target 1 insC 3' of 11,insC 3' of 9 (mixed) RNA 1: CACCCGUGCAAAAAUGCAGGGGUCUAAAACUGAGCGGAUAACCUCUCUAUGG RNA 2: GGGAAUGGAUCCACAUCUACGAAUUCGUACCAUAGAGAGGUCUACUCCGCUCACCGAGAUCGGAAGAGCACACGU",29.4 ± 2.5
23,"target 1 insU 3' of 17,insG 3' of 3 (mixed) RNA 1: CACCCGUGCAAAAAUGCAGGGGUCUAAAACUGAGCGGAUAACCUCUCUAUGG RNA 2: GGGAAUGGAUCCACAUCUACGAAUUCGUACCAUAGUAGAGGUUAUCCGCUGCACCGAGAUCGGAAGAGCACACGU",23.4 ± 2.7
24,"target 1 insU 3' of 18,insA 3' of 5 (mixed) RNA 1: CACCCGUGCAAAAAUGCAGGGGUCUAAAACUGAGCGGAUAACCUCUCUAUGG RNA 2: GGGAAUGGAUCCACAUCUACGAAUUCGUACCAUAUGAGAGGUUAUCCGACUCACCGAGAUCGGAAGAGCACACGU",23.7 ± 2.6
25,"target 1 insG 3' of 14,insA 3' of 13 (mixed) RNA 1: CACCCGUGCAAAAAUGCAGGGGUCUAAAACUGAGCGGAUAACCUCUCUAUGG RNA 2: GGGAAUGGAUCCACAUCUACGAAUUCGUACCAUAGAGAGGAGUUAUCCGCUCACCGAGAUCGGAAGAGCACACGU",10.9 ± 0.5
26,"target 1 del15,del20 (mixed) RNA 1: CACCCGUGCAAAAAUGCAGGGGUCUAAAACUGAGCGGAUAACCUCUCUAUGG RNA 2: GGGAAUGGAUCCACAUCUACGAAUUCGUACCUAGAAGGUUAUCCGCUCACCGAGAUCGGAAGAGCACACGU",90 ± 40
27,"target 1 insG 3' of 14,insU 3' of 9 (mixed) RNA 1: CACCCGUGCAAAAAUGCAGGGGUCUAAAACUGAGCGGAUAACCUCUCUAUGG RNA 2: GGGAAUGGAUCCACAUCUACGAAUUCGUACCAUAGAGAGGGUUAUUCCGCUCACCGAGAUCGGAAGAGCACACGU",81 ± 28
28,"target 1 insU 3' of 21,insG 3' of 16 (mixed) RNA 1: CACCCGUGCAAAAAUGCAGGGGUCUAAAACUGAGCGGAUAACCUCUCUAUGG RNA 2: GGGAAUGGAUCCACAUCUACGAAUUCGUACCUAUAGAGGAGGUUAUCCGCUCACCGAGAUCGGAAGAGCACACGU",87 ± 23
